In the supplement of paper PMC10567573:
± gives the standard deviation.

Experiment: protein stability index of a GFP-peptide fusion (GPS, HEK-293T) (PSI 1-6); higher = more stable
[1] = treatment: DMSO, c terminus: a fixed tail appended
[2] = treatment: MLN4924 1 uM, 8 h, c terminus: a fixed tail appended
[3] = treatment: DMSO, c terminus: native
[4] = treatment: MLN4924 1 uM, 8 h, c terminus: native
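Note: 24-mer peptide tiles fused after GFP, lentivirally expressed, FACS-sorted into six equal bins by GFP/DsRed ratio, decoded by Illumina sequencing, PSI is the read-weighted mean bin number.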

Sequence	protein stability index [1]	protein stability index [2]	protein stability index [3]	protein stability index [4]
FATASAAVPVSTSKPSSDLLDLQP [SNAP91]	4.01 ± 0.28	4.1 ± 0.41	–	–
LPKVLQKYWCVTATRVAPERLFGS [ZBED1]	2.47 ± 0.65	2.2 ± 0.21	–	–
SLNPDGYEKAYEGGSELGGWSLGR [CPXM2]	–	4.29 ± 0.39	–	–
TREGFTLLHLAVNSNTPVDDFHTN [FEM1B]	2.85 ± 0.17	2.95 ± 0.19	–	–
SVICRSLPEGMGPGESGQPPPAC [ALKBH7]	–	–	2.87 ± 0.71	3.5 ± 0.69
VKKCLELFSELAEDKENYKKFYEA [HSP90AB1]	2.54 ± 0.34	2.74 ± 0.33	–	–
GSLKSVEVREPALRPAKRELRGAE [SPSB4]	4.98 ± 0.37	5.03 ± 0.14	–	–
PTCPVCKDRASPADLRTNHTLNNL [TRIM35]	3.62 ± 0.21	3.9 ± 0.46	–	–
VLGPLVALIICYNWLHRRLAGQFL [MOG]	3.15 ± 0.19	2.92 ± 0.13	–	–
ISPSTLKNSLFPSPISSISPGLHS [KCNK9]	2.71 ± 0.56	2.76 ± 0.56	–	–
SISASSARFVSSGSGGGYGGGMRV [KRT15]	3.02 ± 0.22	3.55 ± 0.23	–	–
SGESGLRRRGSDPASGEVEASQLR [TMEM40]	5.56 ± 0.11	5.51 ± 0.22	–	–
IPEKDMDERRRLLEQKTQESQKKK [ZNF207]	5.51 ± 0.27	5.59 ± 0.11	–	–
EKAMAEWVKQQAEREAEKEQKRLE [SDE2]	5.5 ± 0.34	5.57 ± 0.18	–	–
KDKRRIVSSSQDGKVIVWDSFTTN [GNB5]	3.63 ± 0.049	3.8 ± 0.19	–	–
APPSPRDISMEIDSPENMMRHIRF [CCDC6]	3.51 ± 0.28	3.65 ± 0.26	–	–
AVLFTGIVALYIASGLTGFIGLEV [ATL3]	3.49 ± 0.43	3.52 ± 0.35	–	–
GGIETGSITEMFGEFRTGKTQICH [RAD51]	3.63 ± 0.34	3.71 ± 0.51	–	–
AHQHRDKMQQSKNQVVSSTNGELN [CSNK1G3]	5.02 ± 0.42	5.1 ± 0.25	–	–
CRYPYEYEGGHIKGAVNLHMEEEV [CDC25A]	3.8 ± 0.34	3.7 ± 0.33	–	–
KSEEGHPFKAYLDVDITLSSEAFH [RTN3]	2.87 ± 0.45	2.67 ± 0.41	–	–
PAVRQRVIEEAKTAFLLNIQLFEE [HMOX1]	2.66 ± 0.37	3.17 ± 0.26	–	–
HLSGSHNTLAPTCFKAKLHRKRGS [RSPH3]	3.67 ± 0.14	3.77 ± 0.37	–	–

Sequence	protein stability index [1]	protein stability index [2]	protein stability index [3]	protein stability index [4]
RKRMKMDKTCSKTKNKSKHALRKK [FAM9B]	4.23 ± 0.45	4.66 ± 0.3	–	–
FSDSRSNNDDDEDEDDEDEDEDED [TAF7L]	5.7 ± 0.19	5.58 ± 0.41	–	–
VLALFVYVAWNEGSRQWREGKQD [VMA21]	–	–	2.51 ± 0.49	2.85 ± 1.1
LEQDLQQVMVSGPNLNETSIVSGG [ARFIP2]	5.03 ± 0.26	4.99 ± 0.12	–	–
ESVEGVVRILLEHYYKENDPSVRL [INTS4]	2.22 ± 0.46	2.46 ± 0.16	–	–
DDHECCERVVINISGLRFETQLKT [KCNA1]	2.79 ± 0.3	2.61 ± 0.25	–	–
AVLPTAFRVAKKRAPKVLGTTLVV [GDAP1]	2.18 ± 0.2	2.15 ± 0.2	–	–
CRQRLIFEQTPALTKHEWTEALGC [ZNF8]	2.38 ± 0.2	2.42 ± 0.26	–	–
KAFRSDSSFNFFVFFFIFFVQDVL [SCAMP3]	3.36 ± 0.43	3.25 ± 0.17	–	–
DDYLHKDTGETSMLKRPVLLHLHQ [STEAP1]	3.31 ± 0.21	3.17 ± 0.16	–	–
VAAETGHTSTARLLLHRGAGKEAM [RIPK4]	3.6 ± 0.28	3.46 ± 0.13	–	–
VNKITFSEQCYYIFGDLCGNMANL [DVL3]	2.66 ± 0.38	2.36 ± 0.37	–	–
EWNEKVTQSDLYKKTQETLSQAGQ [TPD52L2]	4.39 ± 0.35	4.4 ± 0.17	–	–
TMIRKLEGHHHDVVACDFSPDGAL [WSB1]	3.25 ± 0.28	3.48 ± 0.37	–	–
SVSLRKAERLRAELLDLKAGGFSI [MYORG]	2.25 ± 0.36	2.39 ± 0.29	–	–
KAHKYSELIILYEKKGLHEKALQV [VPS39]	2.19 ± 0.43	2.18 ± 0.46	–	–
LKTSNLPEELRKVFITYSMDTAME [TRAF3IP2]	2.41 ± 0.28	2.43 ± 0.56	–	–
LSRAYDGTTYLPGIVGLNNIKAND [USP39]	3.45 ± 0.24	3.54 ± 0.32	–	–
GHGYDSKKQQELTAAVLGLICEGL [ZBED1]	2.34 ± 0.31	2.09 ± 0.29	–	–
KRGSIPTSLTALSLASASPPLSGR [PPFIA4]	3.99 ± 0.2	4.17 ± 0.28	–	–
EQHAGTSEGLHLAGTAGHPPSGSQ [FBF1]	5.19 ± 0.3	5.2 ± 0.15	–	–
TEIANCSLKVKFFDLERENACATK [PLD5]	–	3.92 ± 0.4	–	–
QKGLGGAMVWALDLDDFAGFSCNQ [CHIT1]	2.31 ± 0.32	2.42 ± 0.16	–	–

Sequence	protein stability index [1]	protein stability index [2]	protein stability index [3]	protein stability index [4]
RLREAAALGDIREVQKLVESGVDV [ANKRD40]	4.28 ± 0.23	4.19 ± 0.077	–	–
VRTSYQPSSPGRFTKETTQKNFNN [TRIM29]	3.93 ± 0.15	3.88 ± 0.22	–	–
LSQRTITVGVYEAAKLLNVDPDNV [GADD45A]	3.16 ± 0.29	3.14 ± 0.19	–	–
HVSPPPSADPARGLPRSRDCRVDL [PDLIM4]	4.76 ± 0.14	4.73 ± 0.13	–	–
HLVIAEMMELGSRSRGASQKKQKL [FATE1]	3.25 ± 0.14	3.34 ± 0.2	–	–
MADERKDEAKAPHWTSAPLTEASA [MAP2]	5.22 ± 0.43	5.41 ± 0.19	–	–
EQGFSQSFTQEQVADIDGQYAMTR [CTNNB1]	4.86 ± 0.083	4.61 ± 0.16	–	–
IIISEPMGYMLFNERMLESYLHAK [CARM1]	2.66 ± 0.41	2.51 ± 0.35	–	–
KLEYEEIALDLTPVIEELTNAGFL [FAN1]	2.14 ± 0.23	2.38 ± 0.24	–	–
PGAEEAQDPEGKGEQEHSQQKEEE [CHGA]	5.65 ± 0.15	5.58 ± 0.43	–	–
MEKMLAGCFLLILGQIVLLPAEAR [MATN2]	3.46 ± 0.56	3.01 ± 0.3	–	–
TRAADLLVNPLDPRNADKIRVKIA [SRPK2]	3.64 ± 0.48	3.75 ± 0.23	–	–
LFPASPTREAHRESSVPVTPSVPP [FBF1]	4.88 ± 0.19	4.84 ± 0.11	–	–
YAPVGFCLLVLRLFLGIHVFLVSC [AUP1]	3.14 ± 1	2.88 ± 0.35	–	–
DMLIREVVEKRLCMYEHGEDTHQS [RSPH3]	3.7 ± 0.26	3.85 ± 0.28	–	–
LWQFLLELLTDKSCQSFISWTGDG [ETS1]	2.96 ± 0.47	3.13 ± 0.46	–	–
ISNIFSNYFSAMYSSEDSTLASVP [ELF3]	2.2 ± 0.25	2.1 ± 0.18	–	–
ARFITDFLDNGYGHCLLDKPEAPL [ADAMTS4]	2.19 ± 0.2	2.01 ± 0.22	–	–
GPMPMSMPNVMTGTMGMAPLGNTP [CLINT1]	4.03 ± 0.21	4.02 ± 0.31	–	–
QRLIKKVQEAVLDKWVNDPHRMDR [GOLPH3]	2.34 ± 0.19	2.27 ± 0.2	–	–
LLTLPRPPLSGALASITETIQVHR [HDAC6]	3.12 ± 0.13	3.22 ± 0.28	–	–
RVTNVGSLLLTPQENESLFTFLGK [WASL]	2.84 ± 0.27	3.19 ± 0.27	–	–
GLSESSGPHTISNQNNYRLLSCGK [ACSBG2]	4.55 ± 0.41	4 ± 0.28	–	–

Sequence	protein stability index [1]	protein stability index [2]	protein stability index [3]	protein stability index [4]
PSASLGKASSRKPFGILSPNVLCS [FBXO34]	2.71 ± 0.23	2.8 ± 0.11	–	–
RPELGAALGIYGAPYAAAAAAQSY [IRX6]	2.73 ± 0.12	2.92 ± 0.46	–	–
KHTVKEHECKLTQEILELIDREVD [IQUB]	4.06 ± 0.23	4.24 ± 0.22	–	–
GLDVLLAQEVRPRRWKLQVLDLRK [PRAME]	2.31 ± 0.46	2.33 ± 0.48	–	–
YCLLSDHGCEYSCVNMDRSFACQC [MATN2]	2.81 ± 0.54	2.95 ± 0.59	–	–
LGLLFERHWHRPVLMAVSVHSERK [SCNN1D]	2.21 ± 0.23	2.33 ± 0.24	–	–
RKDHLKNHLQTHDPNKMAFGCEEC [PLAGL1]	4.77 ± 0.16	4.93 ± 0.54	–	–
RDAGATPSAAGAPASAPGEPRQRR [ANKRD9]	5.57 ± 0.27	5.59 ± 0.19	–	–
LHSKEIVYRDLKPENILLDRDGHI [PRKX]	3.7 ± 0.15	3.75 ± 0.097	–	–
LGRSLTAVFMWPGKDSRWLPSLVL [SLC29A1]	2.98 ± 0.22	2.83 ± 0.47	–	–
NRRGGPPFAFVEFEDPRDAEDAVY [SRSF1]	3.91 ± 0.21	4.21 ± 0.26	–	–
MEIFMEEMREIRRKLRELQLRNCL [BEX3]	3.28 ± 0.41	2.52 ± 0.97	–	–
NHVAVAARYAQQKHRIRRVLIVDW [HDAC6]	2.34 ± 0.72	2.09 ± 0.27	–	–
HSRFVELSEAYRVLSREQSRRSYD [DNAJC4]	3.54 ± 0.23	3.7 ± 0.14	–	–
CSSSTRSVLKRPERSQEESPPGST [CDC25A]	5.17 ± 0.21	4.95 ± 0.34	–	–
REQSRLTSCLKKREEMKLKECVSI [TNFSF13B]	3.62 ± 0.11	3.81 ± 0.24	–	–
NWATTPSSQKKDTSSSTVVSTQRS [TIA1]	4.83 ± 0.19	4.92 ± 0.18	–	–
KISVPRDVMLEELSLLTNRGSKMF [MYOZ1]	2.8 ± 0.28	2.76 ± 0.35	–	–
LASHHNHFSQIVIFMLCTLVLAIP [OR10K2]	3.06 ± 0.22	3.13 ± 0.18	–	–
RCEELEDARYKLHHHLHKTLREIT [TEKT4]	2.81 ± 0.29	2.8 ± 0.25	–	–
